Publication PMC3751045

Key:
Assay in all cases: purified protein
Settings in all cases: 160 μM NADPH, pH 6.5 phosphate, 40°C, GST fusion
purified protein [1] = substrate: O=C[C@@H](O)[C@H](O)CO
purified protein [2] = substrate: O=CC=O
purified protein [3] = substrate: CC(=O)C=O
purified protein [4] = substrate: O=C[C@@H](O)CO

B1: Err1 from T. reesei (GLD1) (Trichoderma reesei) (protein)
chain: MSSGRTVTLNTGYKIPQIGYGTWQAAPGEVGAGVFEALKVGYRHLDLAKVYGNQKEVGEGIKKALAEVPGLKREDIFITSKLWNNSHKPEDVEPALDDTLAELGLDYLDLYLIHWPVAFAPGADLFPKSEDGSEVQLNQNVSIVQTWKAMTELPKSKVRSVGVSNFTIEHLDAVIEATGVVPAVNQIERHPRLPNQPLIDYCAKKGIIITAYSAFGNNTKGLPLLVSSDEVKAVADNLSKKQGKTVTPAQVILAWSQIGGHTVIPKSVTKARIAENFQEVELDDEAIAALNKLGEKPQRFNIPYTYKPRWNINLFNTEEEKAAAHTAVIKL
In the case of B1, the Km (purified protein [1]) is reported as 94.07 ± 2.46 µM, the kcat (purified protein [1]) is reported as 29 s⁻¹ and the kcat/Km (purified protein [1]) is reported as 309000 M⁻¹ s⁻¹. It also gave a Km (purified protein [2]) of 102.74 ± 9.76 µM, a kcat (purified protein [2]) of 18.8 s⁻¹ and a kcat/Km (purified protein [2]) of 183000 M⁻¹ s⁻¹. It also gave a Km (purified protein [3]) of 131.86 ± 1.84 µM, a kcat (purified protein [3]) of 72.6 s⁻¹ and a kcat/Km (purified protein [3]) of 550000 M⁻¹ s⁻¹. For the same protein, the Km (purified protein [4]) was 158.04 ± 5.00 µM, the kcat (purified protein [4]) was 47.9 s⁻¹ and the kcat/Km (purified protein [4]) was 303000 M⁻¹ s⁻¹.
